Reference: publication PMC7367192

Assays:
vWF A1 domain = vWF A1 domain (UniProt P04275); test: MST; details: MST: PBS (162 mM ionic strength), optionally +150 mM NaCl; EMSA: 0.5x TA (20 mM ionic strength), +10 or +40 mM NaCl; FCS after shear at 2000-4000 s-1; pH and …
[1] = molecular target: vWF A1 domain R1392A/R1395A/R1399A (UniProt P04275); test: MST; details: MST: PBS (162 mM ionic strength), optionally +150 mM NaCl; EMSA: 0.5x TA (20 mM ionic strength), +10 or +40 mM NaCl; FCS after shear at 2000-4000 s-1; pH and …
[2] = molecular target: eGFP full-length vWF dimer (UniProt P04275); test: EMSA; details: fixed dimer 0.47 mg/ml, DNA titrated; MST: PBS (162 mM ionic strength), optionally +150 mM NaCl; EMSA: 0.5x TA (20 mM ionic strength), +10 or +40 mM NaCl; FCS after shear at 2000-4000 s-1; pH and …
wt vWF multimer = wt vWF multimer (UniProt P04275); test: FCS; details: MST: PBS (162 mM ionic strength), optionally +150 mM NaCl, EMSA: 0.5x TA (20 mM ionic strength), +10 or +40 mM NaCl, FCS after shear at 2000-4000 s-1, pH and …

Sequence | Kd (vWF A1 domain) [µM] | Kd [1] [µM] | Kd [2] [µM] | binding signal (wt vWF multimer; shear 4000 s-1) [% bound] | binding signal (wt vWF multimer; shear, 2000 s-1?) [% bound]
GGCGTGCAGTGCCTTCGGCCGTGCGGTGCCTCCGTCACGCCTAAAATAAAA [ARC1172 ss DNA] | 10 | 130 | 0.001 | – | –
CATAAATCTTTGAATACCAAGTGTTAGAACCATCAACCATATCAACTTCCTTTATACATCTA / CTACATCACTTTCTTCATTATAAAATAAAAGGAAGTTGATATGGTTGATG [23 bp ds DNA] | 13 | 30 | – | 23 | 21
